In paper PMC5388806 one finds binding data, which are given here for two sequences.

The target in this data set is MtrR-MBP (Neisseria gonorrhoeae) (UniProt P39897). The data set can be described thus: competition EMSA. The settings on record: 30 ul reaction buffer (composition not stated), room temperature; 6% native PAGE at 4 C; 2 ug MtrR-MBP or 1 ug GdhR-His.
MtrR-MBP (Neisseria gonorrhoeae), sequence (P39897 whole entry): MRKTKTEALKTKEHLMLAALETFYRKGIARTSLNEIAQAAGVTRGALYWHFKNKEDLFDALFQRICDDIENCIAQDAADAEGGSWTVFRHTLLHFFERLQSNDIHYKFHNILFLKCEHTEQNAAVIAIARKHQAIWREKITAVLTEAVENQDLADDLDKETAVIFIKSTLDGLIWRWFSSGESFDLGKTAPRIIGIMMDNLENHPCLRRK

Consider “TGCCGTTGACGGCGGGAACGGCGTGTCATTAGAATCCGCCCTGATTGGCCAGTCCAATTTGATGTTTGATGTATTTCGGAAGGGTTCTGCAGGGAATCTTTATAAAGGAGGAGTGATGAAAC (double strand) [R4/R2 (gdhR promoter and downstream)]”, for which the binding entry is “binds”. Next, “CCGTTCCCGCCGTCAACGGCACTTACCTCGCACCGCCCCCGAAACACAGGAAAAAACTACACCAAACTACAATTTTTGTTCATGCAAATATTTGTTTTAACGGGATTTAAATGAAAGCTCCGATTCAAATCTGCCGAACCGCCCAAAAATATATTGACCTGAATATTAAAGTTTCGTAAAGTAATGCAACGTTGCTTTAATTGGTTTGACCACTATTGCCGACGATTAGAAAAATATTTTCGGAGATGTTCAATTATGGAAACTTGGGTTCAAAACTACACGGCAATCGGCG (double strand) [R3/R5 (upstream of gdhR promoter)]”: “no binding”.
